Data from article PMC6122992.

Biological target: rhodamine-labeled cyclic β-hairpin peptide (human)
Test: fluorescence polarisation

Substance	Kd
recombinant Ssa1 (from UniProt P10591 1-642) (natural protein)	3.5 µM
recombinant Ydj1 (from UniProt P25491 1-409) (natural protein)	46.8 µM
